The results in this text go back to US20210063414A1, “METHODS FOR PREVENTING AND/OR TREATING BONE LOSS CONDITIONS BY MODULATING IRISIN” (Dana-Farber Cancer Institute, Inc., priority 2018, published 2021).

The assay deals with 3T3 F442A adipose cells. Description: Integrin-like signaling in adipose cells, immunoblot. In kind it is cell-based, murine. Conditions: irisin 10 minutes. Here is the method:
Differentiated 3T3 F442A adipose cells were incubated in serum free medium for 4 hours followed by treatment of indicated concentrations of irisin for 10 minutes. Cells were lysed to detect the indicated protein level using immunoblot analysis.
Certain materials and methods were used to generate the results described herein. For example, the data shown in FIG. 1A resulted from MLO-Y4 (an osteocyte-like cell line) cells treated with the indicated concentration of irisin and hydrogen peroxide for 4 hours. Cells were stained with Hoechst 33342 (ThermoFisher Scientific, catalog number H3570) and Eth-D1 (ThermoFisher Scientific, catalog number E1169) and analyzed to determine the percentage of cell death using ImageJ. […] Co-precipitated irisin was analyzed by immunoblot analysis against flag tag (Sigma Aldrich, catalog number A8592). The data shown in FIGS. 5A and 5B were generated from MLO-Y4 cells treated and analyzed as in the experiments used to generate the data shown in FIG. 2D, except that pre-treatment of 100 nM RGDS (FIG. 5A) or echistatin (R & D Systems Inc., catalog number 3202/100U) (FIG. 5B) for 10 minutes was performed before irisin treatment. […] Sclerostin mRNA level was analyzed by qPCR (FIG. 7A). […] Epididymal fats were collected, RNAs were extracted from the tissues, and mRNA levels of the indicated genes were analyzed by qPCR. […]

B1: irisin: secreted cleaved form of FNDC5; recombinant human/mouse irisin with C-terminal his tag produced in HEK293 cells (protein)
chain: DSPSAPVNVTVRHLKANSAVVSWDVLEDEVVIGFAISQQKKDVRMLRFIQEVNTTTRSCALWDLEEDTEYIVHVQAISIQGQSPASEPVLFKTPREAEKMASKNKDEVTMKE
modifications: left off: small tags and cut ends
notes: secreted cleaved form of FNDC5; recombinant human/mouse irisin with C-terminal his tag produced in HEK293 cells
B1: the “irisin dose at which phosphorylation of FAK and CREB were observed” value stood at 30 pM.
